According to paper PMC4482583, “The Dimerization State of the Mammalian High Mobility Group Protein AT-Hook 2 (HMGA2)” (PLoS ONE, 2015):
Where a chain is given by its changes, count along the chain named. No end group written: not given here. TMR = tetramethylrhodamine-5-maleimide

Legend:
HMGA2Δ95–108 = biological target: T1, HMGA2Δ95–108 (mouse, UniProt P52927 1-94); test: SEC; CTP-TMR incubated with HMGA2Δ95–108 for 30 minutes at 24°C, resolved on Sephacryl S-100 HR (1×50 cm) in BPES buffer; OD556 and SDS-PAGE of fractions; settings: both partners purified
T1 construct: also called mutant that lacks the negatively charged C-terminus; source: made by PCR-based site directed mutagenesis, purified as described previously [26]
T1 sequence (looked up): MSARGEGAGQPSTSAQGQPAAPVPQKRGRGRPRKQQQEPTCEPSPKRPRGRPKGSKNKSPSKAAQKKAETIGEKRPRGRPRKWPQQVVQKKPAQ

[1] = biological target: the molecule itself; test: cross-linking; EDC (2 mM, zero-length) in MES buffer (10 mM MES, pH 5.5, 50 mM NaCl), 2 hours at 24°C; 29-116 μM protein; 15% SDS-PAGE, Coomassie
[2] = biological target: the molecule itself; test: cross-linking; EDC cross-linking of the cysteineless mutant; data not shown
[3] = biological target: the molecule itself; test: FRET or BRET; 20 nM HMGA2-FM titrated with HMGA2-TMR in 50 mM Tris-HCl (pH 8.0), 200 mM NaCl; excitation 492 nm, read at 518 nm

B1: C-terminal peptide (CTP) of HMGA2 labeled with tetramethylrhodamine-5-maleimide (CTP-TMR) (peptide)
peptide: C(TMR)ETEETSSQESAEED
notes: first residue of the printed peptide H-CETEETSSQESAEED-OH; the cysteine that carries the label; the negatively charged C-terminus of HMGA2, mouse; 14 residues; also called the C-terminal peptide; source: synthetic peptide (custom-synthesized by Advanced ChemTech, Inc.), labeled with TMR, purified on SP-sepharose
- binding result (HMGA2Δ95–108): binds

B2: mammalian high mobility group protein AT-hook 2 (HMGA2) (natural protein, mouse, UniProt P52927 1-108, looked up)
chain: MSARGEGAGQPSTSAQGQPAAPVPQKRGRGRPRKQQQEPTCEPSPKRPRGRPKGSKNKSPSKAAQKKAETIGEKRPRGRPRKWPQQVVQKKPAQETEETSSQESAEED
notes: also called mouse HMGA2; recombinant HMGA2; source: recombinant, purified as described previously [26]
- stoichiometry N [1]: 2

B3: HMGA2C41G (natural protein, mouse, UniProt P52927 1-108, looked up)
chain: B2 chain with C41G
notes: also called cysteineless mutant protein; source: made by PCR-based site directed mutagenesis, purified as described previously [26]
- stoichiometry N [2]: 2

B4: HMGA2 labeled with fluorescein-5-maleimide (HMGA2-FM) or tetramethylrhodamine-5-maleimide (HMGA2-TMR) (natural protein, mouse, UniProt P52927 1-108, looked up)
chain: B2 chain
modifications: fluorescein-5-maleimide (FM) or tetramethylrhodamine-5-maleimide (TMR) on the cysteine residue
notes: labeled at its one cysteine residue; also called HMG-TMR; source: recombinant HMGA2, labeled with TMR or FM, purified (Sephadex G-50 spin columns, dialysis)
- stoichiometry N [3]: 2
